Here are results for one substance from PMC6076264.

The target in the assay is ribosomal protein bL12 (E. coli (endogenous in ribosomes of strain MRE600)) (UniProt P0A7K2).
UniProt P0A7K2, sequence (P0A7K2 whole entry): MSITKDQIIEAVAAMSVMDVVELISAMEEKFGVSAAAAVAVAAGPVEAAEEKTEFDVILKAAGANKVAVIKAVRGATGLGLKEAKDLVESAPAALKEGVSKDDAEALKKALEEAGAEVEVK

As for “RF1 (wild type) (from UniProt P0A7I0 1-360) (natural protein)”, the apparent affinity of RF1 for pre-hydrolysis complexes (PreHC, 0.01 uM) prepared with bL12-depleted (∆bL12) ribosomes, from peptide hydrolysis (10 s, 37 °C) turned out to be 210 nM and the apparent affinity of RF1 for pre-hydrolysis complexes (PreHC, 0.01 uM) prepared with wild-type ribosomes bearing bL12, from peptide hydrolysis (10 s, 37 °C) is 9 nM.
